# Experimental data as given in IntAct's records for PubMed 21317894.
# B1: Complement factor H (Homo sapiens), P08603 (parent)
# chain: MRLLAKIICLMLWAICVAEDCNELPPRRNTEILTGSWSDQTYPEGTQAIYKCRPGYRSLGNVIMVCRKGEWVALNPLRKCQKRPCGHPGDTPFGTFTLTGGNVFEYGVKAVYTCNEGYQLLGEINYRECDTDGWTNDIPICEVVKCLPVTAPENGKIVSSAMEPDREYHFGQAVRFVCNSGYKIEGDEEMHCSDDGFWSKEKPKCVEISCKSPDVINGSPISQKIIYKENERFQYKCNMGYEYSERGDAVCTESGWRPLPSCEEKSCDNPYIPNGDYSPLRIKHRTGDEITYQCRNGFYPATRGNTAKCTSTGWIPAPRCTLKPCDYPDIKHGGLYHENMRRPYFPVAVGKYYSYYCDEHFETPSGSYWDHIHCTQDGWSPAVPCLRKCYFPYLENGYNQNYGRKFVQGKSIDVACHPGYALPKAQTTVTCMENGWSPTPRCIRVKTCSKSSIDIENGFISESQYTYALKEKAKYQCKLGYVTADGETSGSITCGKDGWSAQPTCIKSCDIPVFMNARTKNDFTWFKLNDTLDYECHDGYESNTGSTTGSIVCGYNGWSDLPICYERECELPKIDVHLVPDRKKDQYKVGEVLKFSCKPGFTIVGPNSVQCYHFGLSPDLPICKEQVQSCGPPPELLNGNVKEKTKEEYGHSEVVEYYCNPRFLMKGPNKIQCVDGEWTTLPVCIVEESTCGDIPELEHGWAQLSSPPYYYGDSVEFNCSESFTMIGHRSITCIHGVWTQLPQCVAIDKLKKCKSSNLIILEEHLKNKKEFDHNSNIRYRCRGKEGWIHTVCINGRWDPEVNCSMAQIQLCPPPPQIPNSHNMTTTLNYRDGEKVSVLCQENYLIQEGEEITCKDGRWQSIPLCVEKIPCSQPPQIEHGTINSSRSSQESYAHGTKLSYTCEGGFRISEENETTCYMGKWSSPPQCEGLPCKSPPEISHGVVAHMSDSYQYGEEVTYKCFEGFGIDGPAIAKCLGEKWSHPPSCIKTDCLSLPSFENAIPMGEKKDVYKAGEQVTYTCATYYKMDGASNVTCINSRWTGRPTCRDTSCVNPPTVQNAYIVSRQMSKYPSGERVRYQCRSPYEMFGDEEVMCLNGNWTEPPQCKDSTGKCGPPPPIDNGDITSFPLSVYAPASSVEYQCQNLYQLEGNKRITCRNGQWSEPPKCLHPCVISREIMENYNIALRWTAKQKLYSRTGESVEFVCKRGYRLSSRSHTLRTTCWDGKLEYPTCAKR
# Variants of: B1
# Settings: with co3_human C3, P01024
# Chain of co3_human C3, P01024 (P01024 whole entry): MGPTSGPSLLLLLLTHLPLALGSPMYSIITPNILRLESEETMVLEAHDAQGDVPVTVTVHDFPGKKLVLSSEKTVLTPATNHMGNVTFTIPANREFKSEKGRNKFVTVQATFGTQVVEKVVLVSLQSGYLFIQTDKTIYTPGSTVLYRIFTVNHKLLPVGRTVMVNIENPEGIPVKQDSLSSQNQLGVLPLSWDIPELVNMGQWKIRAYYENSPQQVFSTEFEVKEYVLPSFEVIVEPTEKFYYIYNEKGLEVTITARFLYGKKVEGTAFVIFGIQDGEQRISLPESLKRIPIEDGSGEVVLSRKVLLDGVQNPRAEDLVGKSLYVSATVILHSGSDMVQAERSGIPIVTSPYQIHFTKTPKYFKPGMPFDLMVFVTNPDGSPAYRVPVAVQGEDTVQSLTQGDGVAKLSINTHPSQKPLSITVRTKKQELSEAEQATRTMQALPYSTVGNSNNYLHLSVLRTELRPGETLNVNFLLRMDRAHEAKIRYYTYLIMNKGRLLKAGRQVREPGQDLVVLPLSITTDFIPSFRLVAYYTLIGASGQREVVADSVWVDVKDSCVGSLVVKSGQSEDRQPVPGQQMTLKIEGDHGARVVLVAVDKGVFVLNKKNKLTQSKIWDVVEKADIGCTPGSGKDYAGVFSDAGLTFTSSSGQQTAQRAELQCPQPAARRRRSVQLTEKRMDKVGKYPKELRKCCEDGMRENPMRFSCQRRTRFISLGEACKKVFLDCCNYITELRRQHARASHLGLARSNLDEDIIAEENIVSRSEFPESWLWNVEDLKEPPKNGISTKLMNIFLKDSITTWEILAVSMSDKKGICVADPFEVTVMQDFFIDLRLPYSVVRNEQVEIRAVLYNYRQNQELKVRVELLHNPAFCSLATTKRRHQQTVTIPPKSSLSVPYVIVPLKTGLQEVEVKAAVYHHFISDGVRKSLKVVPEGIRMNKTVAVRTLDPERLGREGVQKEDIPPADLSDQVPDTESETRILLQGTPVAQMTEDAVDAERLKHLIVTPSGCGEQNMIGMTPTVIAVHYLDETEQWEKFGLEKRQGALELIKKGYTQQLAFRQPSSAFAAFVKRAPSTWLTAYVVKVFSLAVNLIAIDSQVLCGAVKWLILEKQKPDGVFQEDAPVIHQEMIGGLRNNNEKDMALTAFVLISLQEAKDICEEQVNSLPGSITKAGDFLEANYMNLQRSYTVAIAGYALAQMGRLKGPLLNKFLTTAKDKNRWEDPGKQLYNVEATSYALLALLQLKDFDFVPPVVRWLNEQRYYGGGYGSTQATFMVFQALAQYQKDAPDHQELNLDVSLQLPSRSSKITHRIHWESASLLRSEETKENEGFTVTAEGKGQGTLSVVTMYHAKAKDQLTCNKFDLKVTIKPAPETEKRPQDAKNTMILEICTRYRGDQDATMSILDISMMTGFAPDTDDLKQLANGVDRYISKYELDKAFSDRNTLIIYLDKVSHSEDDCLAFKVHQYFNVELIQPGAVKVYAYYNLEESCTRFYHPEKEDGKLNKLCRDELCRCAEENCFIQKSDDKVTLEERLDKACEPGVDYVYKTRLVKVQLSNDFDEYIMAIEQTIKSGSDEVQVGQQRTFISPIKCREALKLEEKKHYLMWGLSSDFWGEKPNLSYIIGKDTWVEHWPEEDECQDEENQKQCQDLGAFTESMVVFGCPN
row,Variant,effect of a mutation on the interaction
1,R1182S,decreasing interaction
2,D1119G,disrupting interaction

# Continued, values first:
row,effect of a mutation on the interaction,Variant
1,decreasing interaction,R1203S
2,decreasing interaction,R1215Q
